From US20240270846A1 (published 2024)
Where a chain is given by its changes, count along the chain named.

B1: CE115HA000 H chain altered form A52aS (antibody, human IgG1, kappa, L234A L235A, N297A, name in Kabat numbering)
heavy: QVQLVESGGGVVQPGRSLRLSCAASGFTFSNAWMHWVRQAPGKGLEWVAQIKSKSNNYATYYAESVKGRFTISRDDSKNSLYLQMNSLKTEDTAVYYCRYVHYGAYYGVDAWGQGTTVTVSSASTKGPSVFPLAPSSKSTSGGTAALGCLVKDYFPEPVTVSWNSGALTSGVHTFPAVLQSSGLYSLSSVVTVPSSSLGTQTYICNVNHKPSNTKVDKKVEPKSCDKTHTCPPCPAPEAAGGPSVFLFPPKPKDTLMISRTPEVTCVVVDVSHEDPEVKFNWYVDGVEVHNAKTKPREEQYASTYRVVSVLTVLHQDWLNGKEYKCKVSNKALPAPIEKTISKAKGQPREPQVYTLPPSRCELTKNQVSLSCAVKGFYPSDIAVEWESNGQPENNYKTTPPVLDSDGSFFLVSKLTVDKSRWQQGNVFSCSVMHEALHNHYTQKSLSLSPDYKDDDDK
chain: EPKSSDKTHTCPPCPAPELLGGPSVFLFPPKPKDTLMISRTPEVTCVVVDVSHEDPEVKFNWYVDGVEVHNAKTKPREEQYNSTYRVVSVLTVLHQDWLNGKEYKCKVSNKALPAPIEKTISKAKGQPREPQVCTLPPSRDELTKNQVSLWCLVKGFYPSDIAVEWESNGQPENNYKTTPPVLDSDGSFFLYSKLTVDKSRWQQGNVFSCSVMHEALHNRYTQKSLSLSP
light: DIVMTQSPLSLPVTPGEPASISCRSSQSLVHSNRNTYLHWYQQKPGQAPRLLIYKVSNRFSGVPDRFSGSGSGTDFTLKISRVEAEDVGVYYCGQGTQVPYTFGQGTKLEIKRTVAAPSVFIFPPSDEQLKSGTASVVCLLNNFYPREAKVQWKVDNALQSGNSQESVTEQDSKDSTYSLSSTLTLSKADYEKHKVYACEVTHQGLSSPVTKSFNRGEC
notes: one-arm antibody
B2: CE115HA000 H chain altered form A60E (antibody, human IgG1, kappa, L234A L235A, N297A, name in Kabat numbering)
heavy: B1 heavy with S53A, A63E
chain: B1 chain
light: B1 light
notes: one-arm antibody
B3: CE115HA000 H chain altered form A56Q (antibody, human IgG1, kappa, L234A L235A, N297A, name in Kabat numbering)
heavy: B1 heavy with S53A, A59Q
chain: B1 chain
light: B1 light
notes: one-arm antibody
B4: CE115HA000 H chain altered form H35W (antibody, human IgG1, kappa, L234A L235A, N297A, name in Kabat numbering)
heavy: B1 heavy with H35W, S53A
chain: B1 chain
light: B1 light
notes: one-arm antibody
B5: CE115HA000 H chain altered form A56D (antibody, human IgG1, kappa, L234A L235A, N297A, name in Kabat numbering)
heavy: B1 heavy with S53A, A59D
chain: B1 chain
light: B1 light
notes: one-arm antibody
B6: CE115HA000 H chain altered form H35E (antibody, human IgG1, kappa, L234A L235A, N297A, name in Kabat numbering)
heavy: B1 heavy with H35E, S53A
chain: B1 chain
light: B1 light
notes: one-arm antibody
B7: CE115HA000 H chain altered form H35R (antibody, human IgG1, kappa, L234A L235A, N297A, name in Kabat numbering)
heavy: B1 heavy with H35R, S53A
chain: B1 chain
light: B1 light
notes: one-arm antibody
B8: CE115HA000 H chain altered form A56Y (antibody, human IgG1, kappa, L234A L235A, N297A, name in Kabat numbering)
heavy: B1 heavy with S53A, A59Y
chain: B1 chain
light: B1 light
notes: one-arm antibody
B9: CE115HA000 H chain altered form E61D (antibody, human IgG1, kappa, L234A L235A, N297A, name in Kabat numbering)
heavy: B1 heavy with S53A, E64D
chain: B1 chain
light: B1 light
notes: one-arm antibody
B10: CE115HA000 H chain altered form H35L (antibody, human IgG1, kappa, L234A L235A, N297A, name in Kabat numbering)
heavy: B1 heavy with H35L, S53A
chain: B1 chain
light: B1 light
notes: one-arm antibody
B11: CE115HA000 H chain altered form A52aV (antibody, human IgG1, kappa, L234A L235A, N297A, name in Kabat numbering)
heavy: B1 heavy with S53V
chain: B1 chain
light: B1 light
notes: one-arm antibody
B12: CE115HA000 H chain altered form A56G (antibody, human IgG1, kappa, L234A L235A, N297A, name in Kabat numbering)
heavy: B1 heavy with S53A, A59G
chain: B1 chain
light: B1 light
notes: one-arm antibody
B13: CE115HA000 H chain altered form A56L (antibody, human IgG1, kappa, L234A L235A, N297A, name in Kabat numbering)
heavy: B1 heavy with S53A, A59L
chain: B1 chain
light: B1 light
notes: one-arm antibody
B14: CE115HA000 H chain altered form A52aY (antibody, human IgG1, kappa, L234A L235A, N297A, name in Kabat numbering)
heavy: B1 heavy with S53Y
chain: B1 chain
light: B1 light
notes: one-arm antibody
B15: CE115HA000 H chain altered form A56N (antibody, human IgG1, kappa, L234A L235A, N297A, name in Kabat numbering)
heavy: B1 heavy with S53A, A59N
chain: B1 chain
light: B1 light
notes: one-arm antibody
B16: CE115HA000 H chain altered form H35D (antibody, human IgG1, kappa, L234A L235A, N297A, name in Kabat numbering)
heavy: B1 heavy with H35D, S53A
chain: B1 chain
light: B1 light
notes: one-arm antibody
B17: CE115HA000 H chain altered form H35T (antibody, human IgG1, kappa, L234A L235A, N297A, name in Kabat numbering)
heavy: B1 heavy with H35T, S53A
chain: B1 chain
light: B1 light
notes: one-arm antibody
B18: CE115HA000 H chain altered form A56K (antibody, human IgG1, kappa, L234A L235A, N297A, name in Kabat numbering)
heavy: B1 heavy with S53A, A59K
chain: B1 chain
light: B1 light
notes: one-arm antibody
B19: CE115HA000 H chain altered form H35S (antibody, human IgG1, kappa, L234A L235A, N297A, name in Kabat numbering)
heavy: B1 heavy with H35S, S53A
chain: B1 chain
light: B1 light
notes: one-arm antibody
B20: CE115HA000 H chain altered form H35K (antibody, human IgG1, kappa, L234A L235A, N297A, name in Kabat numbering)
heavy: B1 heavy with H35K, S53A
chain: B1 chain
light: B1 light
notes: one-arm antibody
B21: CE115HA000 H chain altered form H35G (antibody, human IgG1, kappa, L234A L235A, N297A, name in Kabat numbering)
heavy: B1 heavy with H35G, S53A
chain: B1 chain
light: B1 light
notes: one-arm antibody
B22: CE115HA000 H chain altered form E61P (antibody, human IgG1, kappa, L234A L235A, N297A, name in Kabat numbering)
heavy: B1 heavy with S53A, E64P
chain: B1 chain
light: B1 light
notes: one-arm antibody
B23: CE115HA000 H chain altered form H35V (antibody, human IgG1, kappa, L234A L235A, N297A, name in Kabat numbering)
heavy: B1 heavy with H35V, S53A
chain: B1 chain
light: B1 light
notes: one-arm antibody
B24: CE115HA000 H chain altered form H35M (antibody, human IgG1, kappa, L234A L235A, N297A, name in Kabat numbering)
heavy: B1 heavy with H35M, S53A
chain: B1 chain
light: B1 light
notes: one-arm antibody
B25: CE115HA000 H chain altered form H35Q (antibody, human IgG1, kappa, L234A L235A, N297A, name in Kabat numbering)
heavy: B1 heavy with H35Q, S53A
chain: B1 chain
light: B1 light
notes: one-arm antibody
B26: CE115HA000 H chain altered form F29V (antibody, human IgG1, kappa, L234A L235A, N297A, name in Kabat numbering)
heavy: B1 heavy with F29V, S53A
chain: B1 chain
light: B1 light
notes: one-arm antibody
B27: CE115HA000 H chain altered form E61A (antibody, human IgG1, kappa, L234A L235A, N297A, name in Kabat numbering)
heavy: B1 heavy with S53A, E64A
chain: B1 chain
light: B1 light
notes: one-arm antibody
B28: CE115HA000 H chain altered form H35N (antibody, human IgG1, kappa, L234A L235A, N297A, name in Kabat numbering)
heavy: B1 heavy with H35N, S53A
chain: B1 chain
light: B1 light
notes: one-arm antibody
B29: CE115HA000 H chain altered form A60D (antibody, human IgG1, kappa, L234A L235A, N297A, name in Kabat numbering)
heavy: B1 heavy with S53A, A63D
chain: B1 chain
light: B1 light
notes: one-arm antibody
B30: CE115HA000 H chain altered form H35F (antibody, human IgG1, kappa, L234A L235A, N297A, name in Kabat numbering)
heavy: B1 heavy with H35F, S53A
chain: B1 chain
light: B1 light
notes: one-arm antibody
B31: CE115HA000 H chain altered form H35I (antibody, human IgG1, kappa, L234A L235A, N297A, name in Kabat numbering)
heavy: B1 heavy with H35I, S53A
chain: B1 chain
light: B1 light
notes: one-arm antibody
B32: CE115HA000 H chain altered form E61Q (antibody, human IgG1, kappa, L234A L235A, N297A, name in Kabat numbering)
heavy: B1 heavy with S53A, E64Q
chain: B1 chain
light: B1 light
notes: one-arm antibody

Molecular target: T1, CD3 epsilon homodimer protein (UniProt P07766 23-126)
T1 construct: also called CD3 (CD3 epsilon)
T1 sequence (P07766 23-126): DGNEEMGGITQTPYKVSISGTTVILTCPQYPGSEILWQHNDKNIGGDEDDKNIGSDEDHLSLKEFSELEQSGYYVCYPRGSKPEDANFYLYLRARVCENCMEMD
Test: SPR Biacore T200, CD3 epsilon homodimer on chip, antibody as analyte;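 note: homodimer amine-coupled to a CM4 sensor chip, run at 25 °C in HBS-EP+ buffer, with kinetic parameters derived in Biacore T200 Evaluation Software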

| Binder | KD ratio (KD of CE115HA000 / KD of altered form) |
| --- | --- |
| B1 | 0.82 |
| B2 | 0.88 |
| B3 | 0.74 |
| B4 | 50.4 |
| B5 | 0.71 |
| B6 | 70.3 |
| B7 | 15400 |
| B8 | 0.63 |
| B9 | 0.9 |
| B10 | 4.8 |
| B11 | 0.95 |
| B12 | 0.59 |
| B13 | 0.77 |
| B14 | 7.71 |
| B15 | 0.84 |
| B16 | 69 |

| Binder | KD ratio (KD of CE115HA000 / KD of altered form) |
| --- | --- |
| B17 | 4.4 |
| B18 | 1.32 |
| B19 | 2.93 |
| B20 | 14.4 |
| B21 | 45.8 |
| B22 | 0.82 |
| B23 | 28.1 |
| B24 | 3.98 |
| B25 | 4.8 |
| B26 | 2.94 |
| B27 | 0.94 |
| B28 | 2.88 |
| B29 | 0.94 |
| B30 | 53.6 |
| B31 | 7.23 |
| B32 | 0.85 |
